Experiment [1] addresses M2 protein of influenza A/Japan/305/57 (H2N2), on inactivated whole virions (Influenza A virus A/Japan/305/1957 (H2N2)) (UniProt Q6XU12). The experiment in a line: ELISA, positive control antibody on inactivated whole virions.
The target in experiment [2] is recombinant soluble homotrimeric HA of A/Common magpie/Hong Kong/5052/07 - H5N1 (Influenza A virus A/common magpie/Hong Kong/5052/2007 (H5N1)). The experiment in a line: micro-array; captured IgG, V5-tagged trimeric HA.
Experiment [3] has as its target M2 protein of influenza A/Puerto Rico/8/34 (H1N1), on inactivated virus (Influenza A virus A/Puerto Rico/8/34 (H1N1)) (UniProt P06821). The experiment in a line: surface plasmon resonance, Fab fragment on influenza virus. For orientation: SPR reads the build-up and loss of mass on a sensor chip optically.

The record followed here is patent publication US20120207760A1.

Chain of TCN-032 (8I10) (antibody) (VH): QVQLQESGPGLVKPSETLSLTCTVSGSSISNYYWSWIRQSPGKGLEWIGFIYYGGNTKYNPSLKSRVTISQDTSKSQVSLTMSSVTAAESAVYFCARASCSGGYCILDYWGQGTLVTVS
Chain of TCN-032 (8I10) (antibody) (VL): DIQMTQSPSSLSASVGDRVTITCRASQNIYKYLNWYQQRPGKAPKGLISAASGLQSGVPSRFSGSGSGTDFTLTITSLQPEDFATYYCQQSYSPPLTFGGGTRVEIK

In turn, TCN-032 (8I10) (antibody) registered an OD450 in experiment [1] of 3.61 OD450. Take TCN-202 (2N9) (antibody): the Trimeric HA Binding: RLU in experiment [2] stood at 1370 RLU.

As usually defined, the Kd is the free concentration of one partner at which half of the binding sites on the other are occupied at equilibrium, for simple one-to-one binding. Low readings indicate tighter binding, high ones weaker binding. Broadly, the koff is the first-order rate constant of dissociation. A lower koff goes with slow dissociation. A word on the kon: it is a measure of how fast the partners come together. High values mean fast association, low ones slow association. In experiment [3], ch14C2 Fab fragment returned a Kd of 4 µM, a koff of 0.0018 s⁻¹ and a kon of 500 M⁻¹ s⁻¹.
